This assay has as its target RSV F protein (immobilised antigen of Example 6.1) (respiratory syncytial virus). As to the kind of experiment: BIAcore. In general terms: Surface plasmon resonance follows binding to a sensor surface in real time, without labels.

Several values for one entry are separate records, joined by “and”; a condition that tells them apart may be missing. Identical values can stand only once.

Sequence of RSV F protein (immobilised antigen of Example 6.1) (respiratory syncytial virus) (P03420 26-524): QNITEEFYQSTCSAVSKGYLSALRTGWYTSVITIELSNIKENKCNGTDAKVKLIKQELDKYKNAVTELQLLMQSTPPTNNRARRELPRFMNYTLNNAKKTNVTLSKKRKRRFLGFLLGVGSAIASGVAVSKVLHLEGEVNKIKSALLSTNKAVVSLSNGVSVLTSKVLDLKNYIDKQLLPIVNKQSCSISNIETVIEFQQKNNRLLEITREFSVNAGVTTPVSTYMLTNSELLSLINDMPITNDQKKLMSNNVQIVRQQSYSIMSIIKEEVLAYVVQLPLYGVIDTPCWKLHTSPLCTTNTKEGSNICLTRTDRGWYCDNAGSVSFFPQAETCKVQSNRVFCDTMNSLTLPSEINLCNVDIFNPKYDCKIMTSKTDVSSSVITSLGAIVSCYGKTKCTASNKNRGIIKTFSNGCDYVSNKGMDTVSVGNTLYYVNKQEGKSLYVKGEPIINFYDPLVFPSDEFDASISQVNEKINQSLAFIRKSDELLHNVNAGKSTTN

B1: H3-3F4 Fab (Fab, V domains shown)
VH: QVTLRESGPALVKPTQTLTLTCTFSGFSLSTAGMSVGWIRQPPGKALEWLADIWWDDKKDYNPSLKSRLTISKDTSKNQVVLKVTNMDPADTATYYCARDMIFNWYFDVWGQGTTVTVSS
VL: DIQMTQSPSTLSASVGDRVTITCSASSSVGYMHWYQQKPGKAPKLLIYDTFKLASGVPSRFSGSGSGTEFTLTISSLQPDDFATYYCFQGSGYPFTFGGGTKVEIK
The koff is the rate constant with which the complex falls apart. The low end stands for a long-lived complex, the high end for a short-lived complex. Regarding B1, the koff is 0.000445 s⁻¹ and 0.000402 s⁻¹.

B2: L1-7E5 Fab (Fab, V domains shown)
VH: QVTLRESGPALVKPTQTLTLTCTFSGFSLSTAGMSVGWIRQPPGKALEWLADIWWDDKKDYNPSLKSRLTISKDTSKNQVVLKVTNMDPADTATYYCARDMITNFYFDVWGQGTTVTVSS
VL: DIQMTQSPSTLSASVGDRVTITCSASSRVGYMHWYQQKPGKAPKLLIYDTFKLASGVPSRFSGSGSGTEFTLTISSLQPDDFATYYCFQGSGYPFTFGGGTKVEIK
As to B2, the koff was 0.000192 s⁻¹ and 0.000331 s⁻¹ and 0.000229 s⁻¹.

B3: Y10H6 Fab (Fab, V domains shown)
VH: QVTLRESGPALVKPTQTLTLTCTFSGFSLSTAGMSVGWIRQPPGKALEWLADIWWDDKKDYNPSLKSRLTISKDTSKNQVVLKVTNMDPADTATYYCARDMIFNWYFDVWGQGTTVTVSS
VL: DIQMTQSPSTLSASVGDRVTITCSASSSVGYMHWYQQKPGKAPKLLIYDTRYLSSGVPSRFSGSGSGTEFTLTISSLQPDDFATYYCFQGSGYPFTFGGGTKVEIK
Usually kon stands for the second-order rate constant of association. Low values mean slow association, high ones fast association. For B3, the koff was 0.000462 s⁻¹ and the kon was found to be 757000 M⁻¹ s⁻¹.

B4: 6H8 Fab (Fab, V domains shown)
VH: QVTLRESGPALVKPTQTLTLTCTFSGFSLSTAGMSVGWIRQPPGKALEWLADIWWDDKKDYNPSLKSRLTISKDTSKNQVVLKVTNMDPADTATYYCARDMITNFYFDVWGQGTTVTVSS
VL: DIQMTQSPSTLSASVGDRVTITCSASSSVGYMHWYQQKPGKAPKLLIYDTFKLTSGVPSRFSGSGSGTEFTLTISSLQPDDFATYYCFQGSGYPFTFGGGTKVEIK
For the molecule B4, the koff was 0.000178 s⁻¹ and 0.000473 s⁻¹; the kon is 314000 M⁻¹ s⁻¹ and 444000 M⁻¹ s⁻¹.

B5: P12f4 Fab (Fab, V domains shown)
VH: QVTLRESGPALVKPTQTLTLTCTFSGFSLSTPGMSVGWIRQPPGKALEWLADIWWDGKKHYNPSLKDRLTISKDTSKNQVVLKVTNMDPADTATYYCARDMIFNFYFDVWGQGTTVTVSS
VL: DIQMTQSPSTLSASVGDRVTITCSLSSRVGYMHWYQQKPGKAPKLLIYDTRGLPSGVPSRFSGSGSGTEFTLTISSLQPDDFATYYCFQGSGYPFTFGGGTKVEIK
In turn, B5 showed a koff of 0.000299 s⁻¹ and a kon of 527000 M⁻¹ s⁻¹.

B6: M3H9 Fab (Fab, V domains shown)
VH: QVTLRESGPALVKPTQTLTLTCTFSGFSLSTAGMSVGWIRQPPGKALEWLADIWWDDKKDYNPSLKSRLTISKDTSKNQVVLKVTNMDPADTATYYCARDMIFNWYFDVWGQGTTVTVSS
VL: DIQMTQSPSTLSASVGDRVTITCSASSSVGYMHWYQQKPGKAPKLLIYDTYKQTSGVPSRFSGSGSGTEFTLTISSLQPDDFATYYCFQGSGYPFTFGGGTKVEIK
For B6, the off-rate (koff) was found to be 0.000338 s⁻¹ and the kon came to 605000 M⁻¹ s⁻¹.

B7: DG (aka D95/G93) Fab (Fab, V domains shown)
VH: QVTLRESGPALVKPTQTLTLTCTFSGFSLSTAGMSVGWIRQPPGKALEWLADIWWDDKKDYNPSLKSRLTISKDTSKNQVVLKVTNMDPADTATYYCARDMITNFYFDVWGQGTTVTVSS
VL: DIQMTQSPSTLSASVGDRVTITCSASSSVGYMHWYQQKPGKAPKLLIYDTFKLASGVPSRFSGSGSGTEFTLTISSLQPDDFATYYCFQGSGYPFTFGGGTKVEIK
For B7, the koff is 0.000167 s⁻¹ and 0.000444 s⁻¹.

Values taken from patent publication US20100098708A1.
